pKd: −log10 of the molar value.
Columns and labels:
mAb1 WT-AAA (human) [1] = experiment: mass photometry; 200 nM mAb1 Fc variant pre-incubated with 4000 nM PRYSPRY domain, analysed at a 1:250 dilution; PBS pH 7.4, room temperature
mAb1 HH (human) = experiment: SPR; antibody Fc variants captured via CaptureSelect Human Fab-kappa ligand on a C1 chip (approx. 60 RU); PRYSPRY injected, five concentrations, two-fold series; 25°C, HBS-EP+ pH 7.4; 1:1 Langmuir fit
mAb1 WT-AAA (human) [2] = experiment: as above
mAb1 YTE (human) = experiment: as above
[3] = biological target: Fc WT (Fc-only variant, human IgG1 core hinge-CH2-CH3, wild type) (human); experiment: SPR; Biacore T200, C1 chip, 25 °C, HBS-EP+ (10 mM HEPES, 150 mM NaCl, 3 mM EDTA, 0.05% P20, pH 7.4); antibody Fc variants captured via anti-human Fab-kappa nanobody (about 60 RU), Fc only variants amine-coupled (60-80 RU), cytokine-Fc fusions captured via anti-PGLALA F(ab')2 (35-40 RU); PRYSPRY domain injected in five two-fold dilutions from 500, 1000 or 2000 nM; global fit, Langmuir 1:1, affinity mode
Ustekinumab (human) = experiment: as above
Ustekinumab (human), sequence (heavy, as listed by the source, chain 1 of 2): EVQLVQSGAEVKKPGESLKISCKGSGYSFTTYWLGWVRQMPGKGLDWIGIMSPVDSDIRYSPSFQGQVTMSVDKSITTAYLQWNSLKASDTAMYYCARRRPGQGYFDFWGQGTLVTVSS
Ustekinumab (human), sequence (light, as listed by the source, chain 2 of 2): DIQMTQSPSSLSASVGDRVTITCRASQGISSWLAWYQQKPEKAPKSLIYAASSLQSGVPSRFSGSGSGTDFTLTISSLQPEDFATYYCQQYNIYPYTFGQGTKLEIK

[4] = biological target: anti-AAV2 capsid antibody A20 WT (bivalent, human IgG1 Fc WT) (human); experiment: as above
anti-AAV2 capsid antibody A20 WT (bivalent, human IgG1 Fc WT) (human), sequence (heavy, as listed by the source, chain 1 of 2): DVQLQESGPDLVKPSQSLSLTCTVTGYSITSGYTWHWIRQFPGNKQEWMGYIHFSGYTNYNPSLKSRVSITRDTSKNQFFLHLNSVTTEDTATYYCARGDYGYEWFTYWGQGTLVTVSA
anti-AAV2 capsid antibody A20 WT (bivalent, human IgG1 Fc WT) (human), sequence (light, as listed by the source, chain 2 of 2): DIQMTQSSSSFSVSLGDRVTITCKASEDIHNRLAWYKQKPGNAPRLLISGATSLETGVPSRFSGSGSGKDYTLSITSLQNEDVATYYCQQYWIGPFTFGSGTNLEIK

[5] = biological target: mAb1 HH-AAA (asymmetrical human IgG1, one Fc heavy chain HH, the other AAA) (human); experiment: as above
[6] = biological target: mAb1 WT-AAA (asymmetrical human IgG1, one Fc heavy chain H310A, H433A, Y436A) (human); experiment: as above
[7] = biological target: mAb1 YTE (human IgG1, M252Y, S254T, T256E) (human); experiment: as above
[8] = biological target: mAb1 YTE-AAA (asymmetrical human IgG1, one Fc heavy chain YTE, the other AAA) (human); experiment: as above

TRIM21 PRYSPRY domain, sequence (P19474 277-475): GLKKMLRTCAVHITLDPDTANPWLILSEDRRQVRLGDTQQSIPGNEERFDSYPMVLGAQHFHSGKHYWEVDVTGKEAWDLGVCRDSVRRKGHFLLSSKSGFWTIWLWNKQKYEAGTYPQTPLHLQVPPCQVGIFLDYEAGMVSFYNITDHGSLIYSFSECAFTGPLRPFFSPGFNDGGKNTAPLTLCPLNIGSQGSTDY

Substance: TRIM21 PRYSPRY domain (from UniProt P19474-1 277-475) (domain or fragment)
- stoichiometry N (mAb1 WT-AAA (human) [1]): 1
- fold decrease of affinity against mAb1 Fc WT (mAb1 HH (human)): 2.4 fold
- fold faster off rate against WT (mAb1 HH (human)): 5 fold
- fold faster on rate against WT (mAb1 HH (human)): 2 fold
- pKd (mAb1 WT-AAA (human) [2]): 7.40
- stoichiometry N (mAb1 WT-AAA (human) [2]): 1
- fold decrease of affinity against mAb1 Fc WT (mAb1 YTE (human)): 1.7 fold
- fold faster off rate against WT (mAb1 YTE (human)): 1.6 fold
- pKd [3]: 7.19
- koff [3]: 0.102 s⁻¹
- kon [3]: 1.57e+06 M⁻¹ s⁻¹
- pKd (Ustekinumab (human)): 7.37
- koff (Ustekinumab (human)): 0.104 s⁻¹
- kon (Ustekinumab (human)): 2.46e+06 M⁻¹ s⁻¹
- pKd [4]: 7.34
- koff [4]: 0.0876 s⁻¹
- kon [4]: 1.92e+06 M⁻¹ s⁻¹
- pKd [5]: 6.92
- koff [5]: 0.434 s⁻¹
- kon [5]: 3.63e+06 M⁻¹ s⁻¹
- kon [6]: 2.66e+06 M⁻¹ s⁻¹
- pKd [7]: 7.13
- koff [7]: 0.16 s⁻¹
- kon [7]: 2.14e+06 M⁻¹ s⁻¹
- pKd [8]: 7.03
- koff [8]: 0.189 s⁻¹
- kon [8]: 2.04e+06 M⁻¹ s⁻¹
